Experimental data published in patent publication US20190300590A1 (PROTAGONIST THERAPEUTICS, published 2019).
Bridges are numbered along the chain shown (N, C = ends). [ ]: non-standard residue; d: D form. hLeu = CC(C)CC[C@H](N)C(=O)O; Aib = CC(C)(N)C(=O)O

B1: Ac-CSTWQCYWSKQSGGS-NH2 (peptide)
peptide: Ac-CSTWQCYWSKQSGGS-NH2
modifications: disulfide 1-6
SMILES: CC(=O)N[C@H]1CSSC[C@@H](C(=O)N[C@@H](Cc2ccc(O)cc2)C(=O)N[C@@H](Cc2c[nH]c3ccccc23)C(=O)N[C@@H](CO)C(=O)N[C@@H](CCCCN)C(=O)N[C@@H](CCC(N)=O)C(=O)N[C@@H](CO)C(=O)NCC(=O)NCC(=O)N[C@@H](CO)C(N)=O)NC(=O)[C@H](CCC(N)=O)NC(=O)[C@H](Cc2c[nH]c3ccccc23)NC(=O)[C@H]([C@@H](C)O)NC(=O)[C@H](CO)NC1=O
B2: Ac-CRTWQCYWSEFGTGE-NH2 (peptide)
peptide: Ac-CRTWQCYWSEFGTGE-NH2
modifications: disulfide 1-6
SMILES: CC(=O)N[C@H]1CSSC[C@@H](C(=O)N[C@@H](Cc2ccc(O)cc2)C(=O)N[C@@H](Cc2c[nH]c3ccccc23)C(=O)N[C@@H](CO)C(=O)N[C@@H](CCC(=O)O)C(=O)N[C@@H](Cc2ccccc2)C(=O)NCC(=O)N[C@H](C(=O)NCC(=O)N[C@@H](CCC(=O)O)C(N)=O)[C@@H](C)O)NC(=O)[C@H](CCC(N)=O)NC(=O)[C@H](Cc2c[nH]c3ccccc23)NC(=O)[C@H]([C@@H](C)O)NC(=O)[C@H](CCCNC(=N)N)NC1=O

Target: T1, Rat IL-23R_huFC (rat, UniProt F1LX96 39-369)
T1 sequence: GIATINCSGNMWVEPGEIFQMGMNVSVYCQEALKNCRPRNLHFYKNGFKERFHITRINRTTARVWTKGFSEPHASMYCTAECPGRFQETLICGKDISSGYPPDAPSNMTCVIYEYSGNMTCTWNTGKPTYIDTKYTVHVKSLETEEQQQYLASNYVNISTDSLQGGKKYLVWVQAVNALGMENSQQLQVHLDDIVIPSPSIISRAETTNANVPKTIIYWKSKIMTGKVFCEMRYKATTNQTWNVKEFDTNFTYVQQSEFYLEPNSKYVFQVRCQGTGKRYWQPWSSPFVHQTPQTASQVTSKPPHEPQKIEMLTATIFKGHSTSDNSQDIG
Test: rat IL-23R competitive binding ELISA

Point of comparison: Ac-CQTWQCYW[hLeu]K(Ac)NG-NH2 (cysteine pairing not given here) [Ac-CQTWQCYW-[hLeu]-[Lys(Ac)]-NG-NH2], IC50 32 nM. Against it:
- CQTWQCYWXENG (Ac; α-MeOrn; NH2) [Ac-CQTWQCYW-[α-MeOrn]-ENG-NH2] — 2-fold higher, 64 nM
- CQTWQCYWXENG (Ac; 3-Pal; NH2) [Ac-CQTWQCYW-[3-Pal]-ENG-NH2] — 1.6-fold lower, 20 nM
- Ac-CQTWQCYW[hLeu]EEG-NH2 (disulfide 1-6 (inferred)) [Ac-CQTWQCYW-[hLeu]-EEG-NH2] — 1.7-fold higher, 53 nM
- Ac-CQTWQCYW[hLeu]ENE-NH2 (disulfide 1-6 (inferred)) [Ac-CQTWQCYW-[hLeu]-ENE-NH2] — 31-fold higher, 1000 nM
- Ac-CSTWECYWHTYG-NH2 (disulfide 1-6) [Ac-CSTWECYWHTYG-NH2] — 8.9-fold higher, 286 nM
- Ac-CQTWQCYW[Aib]ENG-NH2 (disulfide 1-6 (inferred)) [Ac-CQTWQCYW-[Aib]-ENG-NH2] — within 1.5-fold, 34 nM
- Ac-CTTWQCYW[hLeu]ENG-NH2 (disulfide 1-6 (inferred)) [Ac-CTTWQCYW-[Leu]-ENG-NH2] — within 1.5-fold, 28 nM
- Ac-CRTWQCYWLRLGDEG-NH2 (disulfide 1-6 (inferred)) [Ac-CRTWQCYWLRLGDEG-NH2] — 15-fold higher, 483 nM
- B1 — 6.4-fold higher, 204 nM
- B2 — 24-fold higher, 778 nM
- Ac-CQTWQCYW[hLeu]ENGG-NH2 (cysteine pairing not given here) [Ac-CQTWQCYW-[hLeu]-ENGG-NH2] — 4.4-fold higher, 140 nM
- Ac-FCQTWQCYW[hLeu]ENG-NH2 (cysteine pairing not given here) [Ac-FCQTWQCYW-[hLeu]-ENG-NH2] — within 1.5-fold, 25 nM
- Ac-LCQTWQCYW[hLeu]ENG-NH2 (cysteine pairing not given here) [Ac-LCQTWQCYW-[hLeu]-ENG-NH2] — within 1.5-fold, 26 nM
